Source: patent US20260199522

Biological target: purified C3b (Complement Technology, Inc. #A114), P01024
Sequence (P01024 whole entry, looked up): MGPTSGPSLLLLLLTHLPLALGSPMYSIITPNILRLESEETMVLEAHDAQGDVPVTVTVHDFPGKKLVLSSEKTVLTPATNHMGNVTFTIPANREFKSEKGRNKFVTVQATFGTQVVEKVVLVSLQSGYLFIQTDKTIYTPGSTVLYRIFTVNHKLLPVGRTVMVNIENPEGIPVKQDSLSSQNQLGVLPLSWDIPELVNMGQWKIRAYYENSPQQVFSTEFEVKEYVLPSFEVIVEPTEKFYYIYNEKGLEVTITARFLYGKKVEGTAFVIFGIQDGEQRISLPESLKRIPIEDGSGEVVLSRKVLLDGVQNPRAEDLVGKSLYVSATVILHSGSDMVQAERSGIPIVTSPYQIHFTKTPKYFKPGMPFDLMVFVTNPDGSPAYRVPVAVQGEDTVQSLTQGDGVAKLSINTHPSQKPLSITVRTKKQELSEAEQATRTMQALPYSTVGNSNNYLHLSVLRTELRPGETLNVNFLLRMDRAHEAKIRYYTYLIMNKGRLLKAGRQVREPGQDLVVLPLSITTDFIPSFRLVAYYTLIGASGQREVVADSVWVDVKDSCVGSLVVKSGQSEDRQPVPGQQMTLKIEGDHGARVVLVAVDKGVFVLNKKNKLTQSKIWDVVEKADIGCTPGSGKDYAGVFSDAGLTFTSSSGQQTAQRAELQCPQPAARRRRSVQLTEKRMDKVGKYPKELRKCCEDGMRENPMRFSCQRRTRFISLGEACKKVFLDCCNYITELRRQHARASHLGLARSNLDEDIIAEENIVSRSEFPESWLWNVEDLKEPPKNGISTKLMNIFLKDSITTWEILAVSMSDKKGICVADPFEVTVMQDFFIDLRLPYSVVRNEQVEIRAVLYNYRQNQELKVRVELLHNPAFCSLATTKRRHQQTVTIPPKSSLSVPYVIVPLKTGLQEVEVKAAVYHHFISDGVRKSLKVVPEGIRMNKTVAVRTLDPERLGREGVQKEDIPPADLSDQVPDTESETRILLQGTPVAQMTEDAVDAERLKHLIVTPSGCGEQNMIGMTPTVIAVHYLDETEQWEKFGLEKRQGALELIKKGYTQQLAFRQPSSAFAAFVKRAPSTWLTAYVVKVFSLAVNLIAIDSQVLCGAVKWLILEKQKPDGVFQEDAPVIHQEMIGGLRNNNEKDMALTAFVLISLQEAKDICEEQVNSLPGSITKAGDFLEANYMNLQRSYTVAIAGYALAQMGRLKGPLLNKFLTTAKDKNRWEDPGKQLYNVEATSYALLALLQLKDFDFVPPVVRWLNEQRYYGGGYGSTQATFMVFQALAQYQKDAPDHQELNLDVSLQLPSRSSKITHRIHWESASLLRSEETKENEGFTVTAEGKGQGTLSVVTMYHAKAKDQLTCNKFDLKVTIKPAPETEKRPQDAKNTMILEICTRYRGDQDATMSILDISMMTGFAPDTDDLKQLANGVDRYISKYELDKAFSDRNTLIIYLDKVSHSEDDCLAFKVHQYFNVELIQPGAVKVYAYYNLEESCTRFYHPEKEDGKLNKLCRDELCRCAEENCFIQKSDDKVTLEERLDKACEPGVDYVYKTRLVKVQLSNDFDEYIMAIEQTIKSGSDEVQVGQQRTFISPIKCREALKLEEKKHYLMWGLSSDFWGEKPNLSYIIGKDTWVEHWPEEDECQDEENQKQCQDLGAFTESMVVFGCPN

B1: human Complement Factor I (hCFI) expressed from the AAV-CFI-1.0 vector, secreted into cell media of transduced rabbit retinal explants (protein)
chain: KVTYTSQEDLVEKKCLAKKYTHLSCDKVFCQPWQRCIEGTCVCKLPYQCPKNGTAVCATNRRSFPTYCQQKSLECLHPGTKFLNNGTCTAEGKFSVSLKHGNTDSEGIVEVKLVDQDKTMFICKSSWSMREANVACLDLGFQQGADTQRRFKLSDLSINSTECLHVHCRGLETSLAECTFTKRRTMGYQDFADVVCYTQKADSPMDDFFQCVNGKYISQMKACDGINDCGDQSDELCCKACQGKGFHCKSGVCIPSQYQCNGEVDCITGEDEVGCAGFASVTQEETEILTADMDAERRRIKSLLPKLSCGVKNRMHIRRKRIVGGKRAQLGDLPWQVAIKDASGITCGGIYIGGCWILTAAHCLRASKTHRYQIWTTVVDWIHPDLKRIVIEYVDRIIFHENYNAGTYQNDIALIEMKKDGNKKDCELPRSIPACVPWSPYLFQPNDTCIVSGWGREKDNERVFSLQWGEVKLISNCSKFYGNRFYEKEMECAGTYDGSIDACKGDSGGPLVCMDANNVTYVWGVVSWGENCGKPEFPGVYTKVANYFDWISYHVGRPFISQYNV
With B1 the “C3b cleavage assay (Western blot stained with anti-C3 antibody; appearance of iC3b 68 kDa and 43 kDa bands), in the presence of purified CFH” value was “The iC3b 43 kDa polypeptide is present in all lanes containing cell media from rabbit explants transduced with AAV-CFI-1.0 package into either AAV2.7m8 or AAV2.5T-LSV1 capsid serotypes”.
